Source: publication doi:10.1101/282814 (bioRxiv, 2018)

Key:
[1] = target: the molecule itself; test: cryo-EM structure
[2] = target: the molecule itself; test: SEC

| Protein | stoichiometry N [1] | stoichiometry N [2] |
| --- | --- | --- |
| human TRPC6 channel, full length, tags cleaved, in MSP2N2 lipid nanodiscs (natural protein, UniProt Q9Y210 1-931, looked up) MSQSPAFGPRRGSSPRGAAGAAARRNESQDYLLMDSELGEDGCPQAPLPCYGYYPCFRGSDNRLAHRRQTVLREKGRRLANRGPAYMFSDRSTSLSIEEERFLDAAEYGNIPVVRKMLEECHSLNVNCVDYMGQNALQLAVANEHLEITELLLKKENLSRVGDALLLAISKGYVRIVEAILSHPAFAEGKRLATSPSQSELQQDDFYAYDEDGTRFSHDVTPIILAAHCQEYEIVHTLLRKGARIERPHDYFCKCNDCNQKQKHDSFSHSRSRINAYKGLASPAYLSLSSEDPVMTALELSNELAVLANIEKEFKNDYKKLSMQCKDFVVGLLDLCRNTEEVEAILNGDVETLQSGDHGRPNLSRLKLAIKYEVKKFVAHPNCQQQLLSIWYENLSGLRQQTMAVKFLVVLAVAIGLPFLALIYWFAPCSKMGKIMRGPFMKFVAHAASFTIFLGLLVMNAADRFEGTKLLPNETSTDNAKQLFRMKTSCFSWMEMLIISWVIGMIWAECKEIWTQGPKEYLFELWNMLDFGMLAIFAASFIARFMAFWHASKAQSIIDANDTLKDLTKVTLGDNVKYYNLARIKWDPSDPQIISEGLYAIAVVLSFSRIAYILPANESFGPLQISLGRTVKDIFKFMVIFIMVFVAFMIGMFNLYSYYIGAKQNEAFTTVEESFKTLFWAIFGLSEVKSVVINYNHKFIENIGYVLYGVYNVTMVIVLLNMLIAMINSSFQEIEDDADVEWKFARAKLWFSYFEEGRTLPVPFNLVPSPKSLFYLLLKLKKWISELFQGHKKGFQEDAEMNKINEEKKLGILGSHEDLSKLSLDKKQVGHNKQPSIRSSEDFHLNSFNNPPRQYQKIMKRLIKRYVLQAQIDKESDEVNEGELKEIKQDISSLRYELLEEKSQNTEDLAELIRELGEKLSMEPNQEETNR | 4 |  |
| N-terminal GFP-tagged hTRPC6 (natural protein, human, UniProt Q9Y210 1-931, looked up) MSQSPAFGPRRGSSPRGAAGAAARRNESQDYLLMDSELGEDGCPQAPLPCYGYYPCFRGSDNRLAHRRQTVLREKGRRLANRGPAYMFSDRSTSLSIEEERFLDAAEYGNIPVVRKMLEECHSLNVNCVDYMGQNALQLAVANEHLEITELLLKKENLSRVGDALLLAISKGYVRIVEAILSHPAFAEGKRLATSPSQSELQQDDFYAYDEDGTRFSHDVTPIILAAHCQEYEIVHTLLRKGARIERPHDYFCKCNDCNQKQKHDSFSHSRSRINAYKGLASPAYLSLSSEDPVMTALELSNELAVLANIEKEFKNDYKKLSMQCKDFVVGLLDLCRNTEEVEAILNGDVETLQSGDHGRPNLSRLKLAIKYEVKKFVAHPNCQQQLLSIWYENLSGLRQQTMAVKFLVVLAVAIGLPFLALIYWFAPCSKMGKIMRGPFMKFVAHAASFTIFLGLLVMNAADRFEGTKLLPNETSTDNAKQLFRMKTSCFSWMEMLIISWVIGMIWAECKEIWTQGPKEYLFELWNMLDFGMLAIFAASFIARFMAFWHASKAQSIIDANDTLKDLTKVTLGDNVKYYNLARIKWDPSDPQIISEGLYAIAVVLSFSRIAYILPANESFGPLQISLGRTVKDIFKFMVIFIMVFVAFMIGMFNLYSYYIGAKQNEAFTTVEESFKTLFWAIFGLSEVKSVVINYNHKFIENIGYVLYGVYNVTMVIVLLNMLIAMINSSFQEIEDDADVEWKFARAKLWFSYFEEGRTLPVPFNLVPSPKSLFYLLLKLKKWISELFQGHKKGFQEDAEMNKINEEKKLGILGSHEDLSKLSLDKKQVGHNKQPSIRSSEDFHLNSFNNPPRQYQKIMKRLIKRYVLQAQIDKESDEVNEGELKEIKQDISSLRYELLEEKSQNTEDLAELIRELGEKLSMEPNQEETNR |  | 4 |
